Source: article PMC8366450, “Human CPPED1 belongs to calcineurin‐like metallophosphoesterase superfamily and dephosphorylates PI3K‐AKT pathway component PAK4” (Journal of Cellular and Molecular Medicine, 2021)

B1: CRK proto-oncogene, adaptor protein (natural protein, human, UniProt P46108 1-304, looked up)
chain: MAGNFDSEERSSWYWGRLSRQEAVALLQGQRHGVFLVRDSSTSPGDYVLSVSENSRVSHYIINSSGPRPPVPPSPAQPPPGVSPSRLRIGDQEFDSLPALLEFYKIHYLDTTTLIEPVSRSRQGSGVILRQEEAEYVRALFDFNGNDEEDLPFKKGDILRIRDKPEEQWWNAEDSEGKRGMIPVPYVEKYRPASASVSALIGGNQEGSHPQPLGGPEPGPYAQPSVNTPLPNLQNGPIYARVIQKRVPNAYDKTALALEVGELVKVTKINVSGQWEGECNGKRGHFPFTHVRLLDQQNPDEDFS
notes: CRK proto-oncogene, adaptor protein, human, as on the HuProt v3.1 array; source: S. cerevisiae, purified (GST tag); on bought array: HuProt v3.1, Cambridge Protein Arrays
B2: HIV-1 Tat interactive protein 2 (natural protein, human, UniProt Q9BUP3 1-242, looked up)
chain: MAETEALSKLREDFRMQNKSVFILGASGETGRVLLKEILEQGLFSKVTLIGRRKLTFDEEAYKNVNQEVVDFEKLDDYASAFQGHDVGFCCLGTTRGKAGAEGFVRVDRDYVLKSAELAKAGGCKHFNLLSSKGADKSSNFLYLQVKGEVEAKVEELKFDRYSVFRPGVLLCDRQESRPGEWLVRKFFGSLPDSWASGHSVPVVTVVRAMLNNVVRPRDKQMELLENKAIHDLGKAHGSLKP
notes: also called HTATIP2; source: S. cerevisiae, purified (GST tag); on bought array: HuProt v3.1, Cambridge Protein Arrays
B3: Interferon-stimulated exonuclease gene 20 (enzyme)
chain: not shown
notes: Interferon-stimulated exonuclease gene 20, human, as on the HuProt v3.1 array; also called ISG20; source: S. cerevisiae, purified (GST tag); on bought array: HuProt v3.1, Cambridge Protein Arrays
B4: Cell division cycle associated 3 (natural protein, human, UniProt Q99618 1-268, looked up)
chain: MGSAKSVPVTPARPPPHNKHLARVADPRSPSAGILRTPIQVESSPQPGLPAGEQLEGLKHAQDSDPRSPTLGIARTPMKTSSGDPPSPLVKQLSEVFETEDSKSNLPPEPVLPPEAPLSSELDLPLGTQLSVEEQMPPWNQTEFPSKQVFSKEEARQPTETPVASQSSDKPSRDPETPRSSGSMRNRWKPNSSKVLGRSPLTILQDDNSPGTLTLRQGKRPSPLSENVSELKEGAILGTGRLLKTGGRAWEQGQDHDKENQHFPLVES
notes: Cell division cycle associated 3, human, as on the HuProt v3.1 array; also called CDCA3; source: S. cerevisiae, purified (GST tag); on bought array: HuProt v3.1, Cambridge Protein Arrays

biological target: T1, human recombinant CPPED1 with N-terminal His-V5 dual tag (human, UniProt Q9BRF8 1-314); test: peptide or protein array; HuProt v3.1 human proteome microarray; >20 000 human recombinant proteins immobilised on the array; purified His-V5-CPPED1 applied; conditions: both partners purified
T1 construct: Calcineurin-like phosphoesterase domain-containing protein 1 (CPPED1), human; cloned into PSF-OXB20-NH2-6HIS-V5-TEV; 38.9 kDa including the His-V5 dual tag; The vector name holds a TEV site; no cleavage is told; also called calcineurin-like phosphoesterase domain-containing protein 1; purified recombinant CPPED1; not shown: His6, N-terminal, kept; V5, N-terminal, kept

binding result	Binder
binds	B1
binds	B2
binds	B3
binds	B4
